The values that follow come from patent US20080242617.

The target of one data set is T1, HalA2.
T1 chain: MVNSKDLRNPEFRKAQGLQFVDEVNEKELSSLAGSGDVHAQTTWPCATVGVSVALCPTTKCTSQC

In the next data set the target is T2, HalA1.
T2 chain: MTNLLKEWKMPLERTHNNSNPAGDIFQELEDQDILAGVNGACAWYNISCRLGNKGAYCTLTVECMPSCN

B1: HalM1 (protein)
chain: MRELQNALYFSEVVFGPNLEKIVGEKRLNFWLKLIGEDPENLKEFLSRKGNSFEEQTLPEKEAIVPNRLGEEALEKVREELEFLNTYSTKHVRRVKELGVQIPFEGILLPFISMYIEKFQQQQLRKKIGPIHEEIWTQIVQDITSKLNAILHRTLILELNVARVTSQLKGDTPEERFAYYSKTYLGKREVTHRLYSEYPVVLRLLFTTISHHISFITEILERVANDREAIETEFSPCSPIGTLASLHLNSGDAHHKQRTVTILEFSSSLKLVYKPRSLKVDGVFNGLLAFLNDRTGEVIKDQYCPKVLQRDGYGYVEFVTHQSCQSLEEVSDFYERLGSLMSLSYVLNSSDFHFENIIAHGPYPVLIDLETIIHNTADSSEETSTAMDRAFRMLNDSVLSTGMLPSSIYYRDQPNMKGLNVGGVSKSEGQKTPFKVNQIANRNTDEMRIEKDHVTLSSQKNLPIFQSAAMESVHFLDQIQKGFTSMYQWIEKNKQEFKEQVRKFEGVPVRAVLRSTTRYTELLKSSYHPDLLRSALDREVLLNRLTVDSVMTPYLKEIIPLEVEDLLNGDVPYFYTLPEERALYQEASAINSTFFTTSIFHKIDQKIDKLGIEDHTQQMKILHMSMLASNANHYADVADLDIQKGHTIKNEQYVEMAKDIGDYLMELSVEGENQGEPDLCWISTVLEGSSEIIWDISPVGEDLYNGSAGVALFYAYLFKITGEKRYQEIAYKALVPVRRSVAQFQHHPNWSIGAFNGASGYLYAMGTIAALFNDERLKHEVTRSIPHIEPMIHEDKIYDFIGGSAGALKVFLSLSGLFDEPKFLELAIACSEHLMKNAIKTDQGIGWKPPWEVTPLTGFSHGVSGVMASFIELYQQTGDERLLSYIDQSLAYERSFFSEQEENWLTPNKETPVVAWCHGAPGILVSRLLLKKCGYLDEKVEKEIEVALSTTIRKGLGNNRSLCHGDFGQLEILRFAAEVLGDSYLQEVVNNLSGELYNLFKTEGYQSGTSRGTESVGLMVGLSGFGYGLLSAAYPSAVPSILTLDGEIQKYREPHEANH
B1: the “dehydration of the peptide, MALDI-TOF MS” value in the data set with HalA2 is given as “Incubation of HalA1 with HalM2 or HalA2 with HalM1 did not result in modified peptide in either case”. Further, in the data set with HalA1, the “dehydration of the peptide, MALDI-TOF MS” value was “Incubation of HalA1 with HalM1 generated a species that was dehydrated 3-fold” and the “iodoacetamide alkylation of free cysteines after HalM modification (cyclization), MALDI-TOF MS” value is given as “The mass of HalA1 after modification by HalM1 was increased by 116 Da, consistent with the addition of two adducts”.

B2: HalM2 (protein)
chain: TPLTSEHPSVPTTLPHTNDTDWLEQLHDILSIPVTEEIQKYFHAENDLFSFFYTPFLQFTYQSMSDYFMTFKTDMALIERQSLLQSTLTAVHHRLFHLTHRTLISEMHIDKLTVGLNGSTPHERYMDFNHKFNKTSKSKNLFNIYPILGKLVVNETLRTINFVKKIIQHYMKDYLLLSDFFKEKDLRLTNLQLGVGDTHVNGQCVTILTFASGQKVVYKPRSLSIDKQFGEFIEWVNSKGFQPSLRIPIAIDRQTYGWYEFIPHQEATSEDEIERYYSRIGGYLAIAYLFGATDLHLDNLIACGEHPMLIDLETLFTNDLDCYDSAFPFPALARELTQSVFGTLMLPITIASGKLLDIDLSAVGGGKGVQSEKIKTWVIVNQKTDEMKLVEQPYVTESSQNKPTVNGKEANIGNYIPHVTDGFRKMYRLFLNEIDELMDHNGPIFAFESCQIRHVFRATHVYAKFLEASTHPDYLQEPTRRNKLFESFWNITSLMAPFKKIVPHEIAELENHDIPYFVLTCGGTIVKDGYGRDIADLFQSSCIERVTHRLQQLGSEDEARQIRYIKSSLATLTNGDWTPSHEKTPMSPASADREDGYFLREAQAIGDDILAQLIWEDDRHAAYLIGVSVGMNEAVTVSPLTPGIYDGTLGIVLFFDQLAQQTGETHYRHAADALLEGMFKQLKPELMPSSAYFGLGSLFYGLMVLGLQRSDSHIIQKAYEYLKHLEECVQHEETPDFVSGLSGVLYMLTKIYQLTNEPRVFEVAKTTASRLSVLLDSKQPDTVLTGLSHGAAGFALALLTYGTAANDEQLLKQGHSYLVYERNRFNKQENNWVDLRKGNAYQTFWCHGAPGIGISRLLLAQFYDDELLHEELNAALNKTISDGFGHNHSLCHGDFGNLDLLLLYAQYTNNPEPKELARKLAISSIDQAHTYGWKLGLNHSDQLQGMMLGVTGIGYQLLRHINPTVPSILALELPSSTLTEKELRIHDR
Consider B2, for which the “dehydration of the peptide, MALDI-TOF MS” value in the data set with HalA2 is “incubation of HalA2 with HalM2 generated a species that was dehydrated 7-fold”; with HalA1 it was “Incubation of HalA1 with HalM2 or HalA2 with HalM1 did not result in modified peptide in either case”. Further, the “iodoacetamide alkylation of free cysteines after HalM modification (cyclization), MALDI-TOF MS” value with HalA2 is “The mass of HalA2 modified by HalM2 remained unchanged under the alkylation conditions tested, consistent with the absence of free Cys residues”.
